Source: publication PMC5020499, “Crystal structures of archaeal 2-oxoacid:ferredoxin oxidoreductases from Sulfolobus tokodaii” (Scientific Reports, 2016)

How the values were obtained:
[1] = molecular target: the molecule itself; test: crystal structure; StOFOR1 co-crystallised with 50 mM 2-oxobutyrate and 1 mM CoA; sitting drop, 25 °C, 15% PEG3350, 0.1 M Tris-HCl pH 8.5, 0.1 M NaBr; 2.5 Å; two protomers in the asymmetric unit
[2] = molecular target: T1, StOFOR2 a-subunit (STK_24350) (Sulfolobus tokodaii, UniProt Q96XT2 1-628); test: crystal structure; StOFOR2 ligand-free (2.1 Å) and soaked with 50 mM pyruvate (2.2 Å); sitting drop, 20 °C, 0.7 M ammonium tartrate dibasic, 0.1 M Tris-HCl pH 8.5; one protomer in the asymmetric unit; details: both partners purified
T1 construct: a-subunit of 2-oxoacid:ferredoxin oxidoreductase StOFOR2, STK_24350, Sulfolobus tokodaii; gene amplified from genomic DNA with primers from the start codon to the stop codon; domains III (1a-228a), I (228a-500a), II (500a-627/628a); stk_23000 in pOFORAB was replaced with stk_24350; No tag is mentioned; A selenomethionine-labelled form (E. coli B834 (DE3)) was used for phasing only; also called …
T1 sequence (looked up): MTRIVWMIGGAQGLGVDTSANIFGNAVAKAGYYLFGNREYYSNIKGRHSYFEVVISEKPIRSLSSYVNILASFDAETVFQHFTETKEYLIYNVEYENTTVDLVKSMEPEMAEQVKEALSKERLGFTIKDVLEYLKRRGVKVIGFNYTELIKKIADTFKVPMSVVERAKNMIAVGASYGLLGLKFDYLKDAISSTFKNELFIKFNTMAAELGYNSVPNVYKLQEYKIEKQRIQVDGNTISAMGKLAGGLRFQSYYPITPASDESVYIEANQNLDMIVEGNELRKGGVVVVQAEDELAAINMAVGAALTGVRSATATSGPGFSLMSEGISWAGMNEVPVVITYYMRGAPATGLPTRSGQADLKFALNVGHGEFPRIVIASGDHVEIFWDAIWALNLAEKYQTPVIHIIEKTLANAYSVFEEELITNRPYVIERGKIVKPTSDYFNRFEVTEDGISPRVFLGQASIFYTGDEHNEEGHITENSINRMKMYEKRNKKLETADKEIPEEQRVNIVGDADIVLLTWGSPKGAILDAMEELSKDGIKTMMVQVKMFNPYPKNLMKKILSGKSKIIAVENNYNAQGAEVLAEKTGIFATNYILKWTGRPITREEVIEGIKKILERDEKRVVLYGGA

[3] = molecular target: the molecule itself; test: as above

B1: StOFOR1 protomer (heterodimer of a-subunit STK_23000 and b-subunit STK_22980) (complex, Sulfolobus tokodaii strain 7)
chain 1: MRLSWVIGGAQGTGIDTAANIFGNAVASAGYYIYGNREYYSNIKGRHSYFSLTISDKRVRSNTQKIDILVSFDAETVFQHFYDVKDILIYNKAVETTKIDAVQSMEPELAERIKDFLTKQGYETTVKGALEYASKNNVTLIPVNYDEIAKKVADEMKVPLSVTERVKNIVGITISYKLLGLDVNYLIEAINSTFKQDLYRKMNELAVKDSYDIVESRYNLKPSSKERRRFWLDGNTAVAIGKIYGGVRFQSYYPITPASDESVYIEAHQDVLMEDPITGDKKKGTIVVVQAEDELAAINMAIGAALTGVRAATATSGPGFSLMVEGLGWAGMNEVPVVITYYIRGGPSTGLPTRTAQSDLIFPIFAGHGEFPKIVLASGDHAEAFKDAIWALNLAEKYQTPVIHLVEKTLANSYSTIPYEELELDKLKAERGKIVESGDISYKRFKFTEDGISPRAFLGKATMYYTGDEHNEEGHISEDVVNRTMMYEKRMKKLEVADKEIPEESRVKIYGDLNSRNLIITWGSPTGVLRDILEESNFDFTLLQIRMFSPFPKNLVSKLMEGRDKIITVEGNYLAQTSLLVKMYTGKDVTNSILKWNGRPFLRDELEEALIKVIKDGEKRVVLNGGI
chain 2: PQWNDWCPGCGNFGILNAEQQAIVELGVDTKNVVVVSGIGCSGKIPHFFRTPISGVHTLHGRAIAFATGIKLSNPDLVVIVNGGDGDLLGIGAGHFVAAGRRNVDMVVILHDNGVYGLTKGQASPTLKRGEKPKSLPRPNINDAVNPIALAISSGYTFVARGYAYDVKHLKELIKSAIKHKGLALIDVLQPCPTYNDINTKEWYDKRIYKLDTLPDWDPVVKKPEEVNEKIKRAIDKSLEWGDRIPIGIFYQNELVPSYEERIKANSPAYLDYTPAKQLIEKEGKLTTIIDPLLKEREVD
notes: a-subunit of StOFOR1, STK_23000, Sulfolobus tokodaii strain 7, 70 kDa; as the chain of m1; b-subunit of StOFOR1, STK_22980, Sulfolobus tokodaii strain 7, 34 kDa; as the chain of m2; One protomer is the pair of a- and b-subunits that holds one TPP; Two protomers form the (ab)2 enzyme; Cofactors: TPP, Mg2+, [4Fe-4S]; also called STK_23000/STK_22980; source: E. coli C43 (DE3), both subunits …
- stoichiometry N [1]: 2

B2: StOFOR2 b-subunit (STK_24330) (natural protein, Sulfolobus tokodaii, UniProt Q96XT4 1-304, looked up)
chain: MVERKPVFVDWCPGCGDFGILRAEEMAIRELGINPKSVVIVSGIGCSGKIPHFMNLPISGVHTLHGRSIAFATGIKLSNPSLEVIVNVGDGDGLGIGMGHFVHLGRRNIDIAVLVHNNGVYGLTKGQASPTLHRGEKTKSLPKPNIMDAVNPLAVALAAGYTFVARGYAYDVMHLKELIKKAILHKGSALVDILQPCPTYNDINTKEWYDKRVYKLDNVPGWDPVVRKEEEAQKKFEQAIMKSYEWGEKIPIGIFYQNELVPTFEDRLTSNIPNYREYYPAKQQIEINGISTTKIDELIKAKRI
notes: b-subunit of 2-oxoacid:ferredoxin oxidoreductase StOFOR2, STK_24330, Sulfolobus tokodaii; gene amplified from genomic DNA with primers from the start codon to the stop codon; domain VI (1b-305b); stk_22980 in pOFORAB was replaced with stk_24330; No tag is mentioned; Holds the [4Fe-4S] cluster; also called b-subunit of StOFOR2; source: E. coli C43 (DE3), expressed with the a-subunit, purified …
- binding result [2]: binds

B3: StOFOR2 protomer (heterodimer of a-subunit STK_24350 and b-subunit STK_24330) (complex, Sulfolobus tokodaii)
chain 1: MTRIVWMIGGAQGLGVDTSANIFGNAVAKAGYYLFGNREYYSNIKGRHSYFEVVISEKPIRSLSSYVNILASFDAETVFQHFTETKEYLIYNVEYENTTVDLVKSMEPEMAEQVKEALSKERLGFTIKDVLEYLKRRGVKVIGFNYTELIKKIADTFKVPMSVVERAKNMIAVGASYGLLGLKFDYLKDAISSTFKNELFIKFNTMAAELGYNSVPNVYKLQEYKIEKQRIQVDGNTISAMGKLAGGLRFQSYYPITPASDESVYIEANQNLDMIVEGNELRKGGVVVVQAEDELAAINMAVGAALTGVRSATATSGPGFSLMSEGISWAGMNEVPVVITYYMRGAPATGLPTRSGQADLKFALNVGHGEFPRIVIASGDHVEIFWDAIWALNLAEKYQTPVIHIIEKTLANAYSVFEEELITNRPYVIERGKIVKPTSDYFNRFEVTEDGISPRVFLGQASIFYTGDEHNEEGHITENSINRMKMYEKRNKKLETADKEIPEEQRVNIVGDADIVLLTWGSPKGAILDAMEELSKDGIKTMMVQVKMFNPYPKNLMKKILSGKSKIIAVENNYNAQGAEVLAEKTGIFATNYILKWTGRPITREEVIEGIKKILERDEKRVVLYGGA
chain 2: MVERKPVFVDWCPGCGDFGILRAEEMAIRELGINPKSVVIVSGIGCSGKIPHFMNLPISGVHTLHGRSIAFATGIKLSNPSLEVIVNVGDGDGLGIGMGHFVHLGRRNIDIAVLVHNNGVYGLTKGQASPTLHRGEKTKSLPKPNIMDAVNPLAVALAAGYTFVARGYAYDVMHLKELIKKAILHKGSALVDILQPCPTYNDINTKEWYDKRVYKLDNVPGWDPVVRKEEEAQKKFEQAIMKSYEWGEKIPIGIFYQNELVPTFEDRLTSNIPNYREYYPAKQQIEINGISTTKIDELIKAKRI
notes: a-subunit of StOFOR2, STK_24350, Sulfolobus tokodaii; primers from the start codon to the stop codon; as the chain of m3; b-subunit of StOFOR2, STK_24330, Sulfolobus tokodaii; as the chain of m4; One protomer is the pair of a- and b-subunits that holds one TPP; Two crystallographically identical protomers form the (ab)2 enzyme; Cofactors: TPP, Mg2+, [4Fe-4S]; also called STK_24350/STK_24330; …
- stoichiometry N [3]: 2
